For two molecules, Kd results are on record in article PMC7171158.

The Kd is a measure of binding affinity in units of concentration. Higher therefore signals weaker binding.

This test addresses NusA-AR2^D443C labeled with fluorescein-5-maleimide (E. coli) (UniProt P0AFF6). Description: fluorescence polarisation; fluorescence anisotropy; 25 nM fluorescein-labeled NusA-AR2^D443C with increasing unlabeled protein; 25 °C; 50 mM Na-P pH 6.5, 100 mM NaCl, 150 mM glucose, 5 mM DTT, 0.05% Tween; two-state binding model. On the technique in general: In fluorescence polarisation assays a small probe gives low polarisation when free and higher when bound to something large.

B1: antiterminator protein Q from phage λ (λQ), full length (natural protein)
chain: MRLESVAKFHSPKSPMMSDSPRATASDSLSGTDVMAAMGMAQSQAGFGMAAFCGKHELSQNDKQKAINYLMQFAHKVSGKYRGVAKLEGNTKAKVLQVLATFAYADYCRSAATPGARCRDCHGTGRAVDIAKTELWGRVVEKECGRCKGVGYSRMPASAAYRAVTMLIPNLTQPTWSRTVKPLYDALVVQCHKEESIADNILNAVTR
In turn, B1 returned a Kd of 268 µM.

B2: λQ deletion variant lacking 36 residues at the N-terminus (λQ^Δ36) (domain or fragment)
chain: AMGMAQSQAGFGMAAFCGKHELSQNDKQKAINYLMQFAHKVSGKYRGVAKLEGNTKAKVLQVLATFAYADYCRSAATPGARCRDCHGTGRAVDIAKTELWGRVVEKECGRCKGVGYSRMPASAAYRAVTMLIPNLTQPTWSRTVKPLYDALVVQCHKEESIADNILNAVTR
Molecule B2 displayed a Kd of 271 µM.
